Laboratory results as given in patent US20160122421A1 (IPIERIAN, published 2016).
Where a chain is given by its changes, count along the chain named.

T1: eTau 1b
T1 construct: member of the group m9
T1 polypeptide: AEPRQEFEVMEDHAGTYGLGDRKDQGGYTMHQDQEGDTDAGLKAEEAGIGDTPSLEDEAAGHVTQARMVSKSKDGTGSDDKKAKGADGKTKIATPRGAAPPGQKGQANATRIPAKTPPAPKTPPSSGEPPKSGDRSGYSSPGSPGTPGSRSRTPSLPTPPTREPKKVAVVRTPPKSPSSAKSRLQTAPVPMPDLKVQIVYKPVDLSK

T2: eTau 2
T2 construct: member of the group m9
T2 polypeptide: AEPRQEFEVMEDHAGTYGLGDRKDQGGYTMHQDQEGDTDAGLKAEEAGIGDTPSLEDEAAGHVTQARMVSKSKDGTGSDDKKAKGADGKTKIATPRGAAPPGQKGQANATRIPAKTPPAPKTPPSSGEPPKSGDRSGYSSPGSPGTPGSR

T3: eTau-4 peptide
T3 construct: also called synthetic eTau4 polypeptide
T3 peptide: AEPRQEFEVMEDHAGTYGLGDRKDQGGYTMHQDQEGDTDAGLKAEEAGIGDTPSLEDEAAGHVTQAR

B1: humanized IPN002 variant VH2/Vk2 (antibody, V domains shown)
VH: EVHLVESGGALVKPGGSLRLSCAASGFSFSKYGMSWVRQAPGKGLEWVATISSSGSRTYYPDSVKGRFTISRDNAKNTLYLQMNSLRAEDTAMYYCSISWDGAMDYWGQGTTVTVSS
VL: DVVMTQSPLSLPVTLGQPASISCKSSQSIVHSNGNTYLEWYLQKPGQSPQLLVYKVSNRFSGVPDRFSGSGSGTDFTLKISRVEAEDVGTYYCFQGSLVPWAFGGGTKVEIK
B2: humanized IPN002 variant VH2/Vk1 (antibody, V domains shown)
VH: B1 VH
VL: B1 VL with V3L
B3: VH1/Vk3 (antibody, V domains shown)
VH: B1 VH with N84S, R87K, A88S, T112S
VL: B1 VL with T90V
notes: member of the group m7; also called humanized IPN002 variant VH1/Vk3
B4: VH1/Vk1 (antibody, V domains shown)
VH: B1 VH with N84S, R87K, A88S, T112S
VL: B1 VL with V3L
notes: member of the group m7; also called humanized IPN002 variant VH1/Vk1
B5: VH4/Vk2 (antibody, V domains shown)
VH: B1 VH with H3Q, S97A
VL: B1 VL
notes: member of the group m7; also called humanized IPN002 variant VH4/Vk2
B6: VH1/Vk4 (antibody, V domains shown)
VH: B1 VH with N84S, R87K, A88S, T112S
VL: B1 VL with V53I, T90V
notes: member of the group m7; also called humanized IPN002 variant VH1/Vk4
B7: VH2/Vk4 (antibody, V domains shown)
VH: B1 VH
VL: B1 VL with V53I, T90V
notes: member of the group m7; also called humanized IPN002 variant VH2/Vk4
B8: VH4/Vk4 (antibody, V domains shown)
VH: B1 VH with H3Q, S97A
VL: B1 VL with V53I, T90V
notes: member of the group m7; also called humanized IPN002 variant VH4/Vk4
B9: VH3/Vk2 (antibody, V domains shown)
VH: B1 VH with H3Q
VL: B1 VL
notes: member of the group m7; also called humanized IPN002 variant VH3/Vk2
B10: VH1/Vk2 (antibody, V domains shown)
VH: B1 VH with N84S, R87K, A88S, T112S
VL: B1 VL
notes: member of the group m7; also called humanized IPN002 variant VH1/Vk2
B11: humanized IPN002 variant VH2/Vk3 (antibody, V domains shown)
VH: B1 VH
VL: B1 VL with T90V
B12: VH3/Vk1 (antibody, V domains shown)
VH: B1 VH with H3Q
VL: B1 VL with V3L
notes: member of the group m7; also called humanized IPN002 variant VH3/Vk1
B13: VH3/Vk3 (antibody, V domains shown)
VH: B1 VH with H3Q
VL: B1 VL with T90V
notes: member of the group m7; also called humanized IPN002 variant VH3/Vk3
B14: VH3/Vk4 (antibody, V domains shown)
VH: B1 VH with H3Q
VL: B1 VL with V53I, T90V
notes: member of the group m7; also called humanized IPN002 variant VH3/Vk4
B15: VH4/Vk3 (antibody, V domains shown)
VH: B1 VH with H3Q, S97A
VL: B1 VL with T90V
notes: member of the group m7; also called humanized IPN002 variant VH4/Vk3
B16: VH4/Vk1 (antibody, V domains shown)
VH: B1 VH with H3Q, S97A
VL: B1 VL with V3L
notes: member of the group m7; also called humanized IPN002 variant VH4/Vk1
B17: IPN002 (antibody, V domains shown)
VH: B1 VH with R19K, A40T, G42D, G44R, R67Q, N84S, R87K, A88S, T112S
VL: B1 VL with V3L, S7T, T14S, Q17D, P18Q, Q50K, V88L, V109L
notes: It is the murine parental antibody; also called IPN2; IPN-2

Each binder was assayed against T4, 383 amino acid recombinant tau (UniProt P10636-6 1-383, biotinylated where printed as biotin-rTau383 (position not given)) (assay: relative binding affinity, method not named (Table 4)).
T4 construct: also called rTau383
T4 sequence (P10636 other isoform, or with tags, fused parts or gaps limits assumed): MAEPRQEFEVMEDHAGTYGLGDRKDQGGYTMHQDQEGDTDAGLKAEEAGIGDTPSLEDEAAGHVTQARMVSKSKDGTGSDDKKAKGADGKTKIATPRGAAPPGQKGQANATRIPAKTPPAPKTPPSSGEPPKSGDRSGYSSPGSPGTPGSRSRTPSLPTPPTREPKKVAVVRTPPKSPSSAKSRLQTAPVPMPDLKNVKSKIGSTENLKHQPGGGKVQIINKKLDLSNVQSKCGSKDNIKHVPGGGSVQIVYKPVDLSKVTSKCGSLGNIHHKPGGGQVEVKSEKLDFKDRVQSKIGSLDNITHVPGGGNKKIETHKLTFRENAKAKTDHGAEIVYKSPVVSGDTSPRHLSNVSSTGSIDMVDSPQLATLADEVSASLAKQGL

B1 and B2 are within 1.5-fold of each other in Kd: 0.199 nM for the first, 0.242 nM for the second.

B3 and B4 are within 1.5-fold of each other in Kd: 0.175 nM for the first, 0.183 nM for the second.

Going from B5 to B6, the Kd rises from 0.16 nM to 0.286 nM (1.8-fold). The first binds more tightly here.

Going from B7 to B8, the Kd rises from 0.248 nM to 0.379 nM (1.5-fold).

First: B9
Second: B10
The Kd of the first is 2.1-fold higher: 0.258 nM for the first, 0.121 nM for the second. The second binds more tightly here.

B11 and B12 are within 1.5-fold of each other in Kd: 0.223 nM for the first, 0.236 nM for the second.

B13 and B14 are within 1.5-fold of each other in Kd: 0.224 nM for the first, 0.255 nM for the second.

B15 and B16 are within 1.5-fold of each other in Kd: 0.276 nM for the first, 0.187 nM for the second.

Target: T1, eTau 1b
Test: as above

B1 and B2 are within 1.5-fold of each other in Kd: 0.229 nM for the first, 0.215 nM for the second.

B3 and B4 are within 1.5-fold of each other in Kd: 0.59 nM for the first, 0.737 nM for the second.

B5 and B6 are within 1.5-fold of each other in Kd: 0.483 nM for the first, 0.597 nM for the second.

B7 and B8 are within 1.5-fold of each other in Kd: 0.52 nM for the first, 0.535 nM for the second.

B9 and B10 are within 1.5-fold of each other in Kd: 0.614 nM for the first, 0.558 nM for the second.

Going from B11 to B12, the Kd rises from 0.287 nM to 0.529 nM (1.8-fold).

Going from B13 to B14, the Kd falls from 0.689 nM to 0.382 nM (1.8-fold). The second binds more tightly here.

B15 and B16 are within 1.5-fold of each other in Kd: 0.313 nM for the first, 0.359 nM for the second.

The binders below were run against eTau1a (amino acids 2-166 of fetal tau) (Homo sapiens (Human), UniProt P10636 2-541) in the same assay as above.

B1 and B2 are within 1.5-fold of each other in Kd: 0.327 nM for the first, 0.281 nM for the second.

B3 and B4 are within 1.5-fold of each other in Kd: 0.291 nM for the first, 0.294 nM for the second.

B5 and B6 are within 1.5-fold of each other in Kd: 0.191 nM for the first, 0.252 nM for the second.

B7 and B8 are within 1.5-fold of each other in Kd: 0.343 nM for the first, 0.325 nM for the second.

B9 and B10 are within 1.5-fold of each other in Kd: 0.282 nM for the first, 0.212 nM for the second.

B11 and B12 are within 1.5-fold of each other in Kd: 0.327 nM for the first, 0.241 nM for the second.

B13 and B14 are within 1.5-fold of each other in Kd: 0.22 nM for the first, 0.216 nM for the second.

B15 and B16 are within 1.5-fold of each other in Kd: 0.178 nM for the first, 0.198 nM for the second.

Target: T2, eTau 2
Test: as above

B1 and B2 are within 1.5-fold of each other in Kd: 0.283 nM for the first, 0.225 nM for the second.

B3 and B4 are within 1.5-fold of each other in Kd: 0.444 nM for the first, 0.465 nM for the second.

B5 and B6 are within 1.5-fold of each other in Kd: 0.451 nM for the first, 0.427 nM for the second.

Compared with B7, B8 is 1.6-fold higher in Kd: 0.354 nM for the first, 0.564 nM for the second. The first binds more tightly here.

B9 and B10 are within 1.5-fold of each other in Kd: 0.408 nM for the first, 0.361 nM for the second.

Going from B11 to B12, the Kd rises from 0.261 nM to 0.705 nM (2.7-fold). The first binds more tightly here.

B13 and B14 are within 1.5-fold of each other in Kd: 0.471 nM for the first, 0.447 nM for the second.

B15 and B16 are within 1.5-fold of each other in Kd: 0.473 nM for the first, 0.405 nM for the second.

Each binder was assayed against eTau 4 (FIG. 17) (assay: relative binding affinity, method not named (Table 4); fifth column, headed eTau 4).

B1 and B2 are within 1.5-fold of each other in Kd: 0.294 nM for the first, 0.369 nM for the second.

B3 and B4 are within 1.5-fold of each other in Kd: 0.478 nM for the first, 0.358 nM for the second.

B5 and B6 are within 1.5-fold of each other in Kd: 0.291 nM for the first, 0.269 nM for the second.

B7 and B8 are within 1.5-fold of each other in Kd: 0.418 nM for the first, 0.462 nM for the second.

Going from B9 to B10, the Kd falls from 0.589 nM to 0.321 nM (1.8-fold).

Compared with B11, B12 is 2.1-fold higher in Kd: 0.219 nM for the first, 0.454 nM for the second.

B13 and B14 are within 1.5-fold of each other in Kd: 0.469 nM for the first, 0.381 nM for the second.

Going from B15 to B16, the Kd falls from 0.636 nM to 0.28 nM (2.3-fold). The second binds more tightly here.

What follows are binders tested against T4, 383 amino acid recombinant tau (assay: Octet).

B1 and B17 are within 1.5-fold of each other in Kd: 0.232 nM for the first, 0.206 nM for the second.

First: B3
Second: B4
The Kd of the first is 30-fold higher: 1.28 nM for the first, 0.0426 nM for the second. The second binds more tightly here.

Going from B5 to B6, the Kd falls from 1.88 nM to 0.571 nM (3.3-fold). The second binds more tightly here.

First: B7
Second: B8
The Kd of the first is 2-fold higher: 1.66 nM for the first, 0.812 nM for the second. The second binds more tightly here.

B9 and B10 are within 1.5-fold of each other in Kd: 0.577 nM for the first, 0.446 nM for the second.

B11 and B12 are within 1.5-fold of each other in Kd: 1.73 nM for the first, 1.99 nM for the second.

Going from B13 to B14, the Kd rises from 0.169 nM to 0.475 nM (2.8-fold).

First: B15
Second: B16
The Kd of the first is 3.7-fold lower: 0.571 nM for the first, 2.12 nM for the second.

B1 and B17 are within 1.5-fold of each other in koff: 4.75e-05 s⁻¹ for the first, 4.78e-05 s⁻¹ for the second.

Compared with B3, B4 is 27-fold lower in koff: 0.000233 s⁻¹ for the first, 8.75e-06 s⁻¹ for the second.

Going from B5 to B6, the koff falls from 0.000307 s⁻¹ to 9.52e-05 s⁻¹ (3.2-fold).

Compared with B7, B8 is 1.9-fold lower in koff: 0.000236 s⁻¹ for the first, 0.000126 s⁻¹ for the second.

B9 and B10 are within 1.5-fold of each other in koff: 0.000107 s⁻¹ for the first, 8.74e-05 s⁻¹ for the second.

B11 and B12 are within 1.5-fold of each other in koff: 0.000232 s⁻¹ for the first, 0.000257 s⁻¹ for the second.

First: B13
Second: B14
The koff of the first is 3.2-fold lower: 3.15e-05 s⁻¹ for the first, 0.0001 s⁻¹ for the second.

Compared with B15, B16 is 3.2-fold higher in koff: 9.39e-05 s⁻¹ for the first, 0.000297 s⁻¹ for the second.

B1 and B17 are within 1.5-fold of each other in kon: 205000 M⁻¹ s⁻¹ for the first, 233000 M⁻¹ s⁻¹ for the second.

B3 and B4 are within 1.5-fold of each other in kon: 182000 M⁻¹ s⁻¹ for the first, 206000 M⁻¹ s⁻¹ for the second.

B5 and B6 are within 1.5-fold of each other in kon: 163000 M⁻¹ s⁻¹ for the first, 167000 M⁻¹ s⁻¹ for the second.

B7 and B8 are within 1.5-fold of each other in kon: 142000 M⁻¹ s⁻¹ for the first, 156000 M⁻¹ s⁻¹ for the second.

B9 and B10 are within 1.5-fold of each other in kon: 185000 M⁻¹ s⁻¹ for the first, 196000 M⁻¹ s⁻¹ for the second.

B11 and B12 are within 1.5-fold of each other in kon: 134000 M⁻¹ s⁻¹ for the first, 129000 M⁻¹ s⁻¹ for the second.

B13 and B14 are within 1.5-fold of each other in kon: 187000 M⁻¹ s⁻¹ for the first, 211000 M⁻¹ s⁻¹ for the second.

B15 and B16 are within 1.5-fold of each other in kon: 164000 M⁻¹ s⁻¹ for the first, 140000 M⁻¹ s⁻¹ for the second.

Target: T3, eTau-4 peptide
Test: relative binding affinity, method not named (Table 4); sixth column, headed eTau 4

B1 and B2 are within 1.5-fold of each other in Kd: 0.394 nM for the first, 0.321 nM for the second.

B3 and B4 are within 1.5-fold of each other in Kd: 0.761 nM for the first, 0.577 nM for the second.

First: B5
Second: B6
The Kd of the first is 1.9-fold lower: 0.467 nM for the first, 0.869 nM for the second.

Compared with B7, B8 is 1.5-fold higher in Kd: 0.671 nM for the first, 1.03 nM for the second. The first binds more tightly here.

B9 and B10 are within 1.5-fold of each other in Kd: 0.701 nM for the first, 0.633 nM for the second.

Compared with B11, B12 is 2.2-fold higher in Kd: 0.411 nM for the first, 0.921 nM for the second. The first binds more tightly here.

B13 and B14 are within 1.5-fold of each other in Kd: 0.665 nM for the first, 0.586 nM for the second.

B15 and B16 are within 1.5-fold of each other in Kd: 0.629 nM for the first, 0.498 nM for the second.
